Results reported in the supplement of paper PMC9170038.

System: MS2 coat protein
Test: apparent KD of MS2 coat protein; designed switch direction (-1 OFF switch, 1 ON switch): 1; higher = weaker reporter binding
Procedure, shortened: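 Normalised cluster fluorescence was curve-fitted, and each design's median over clusters is its apparent KD. Before this, SNAP-549-labelled MS2 coat protein was titrated from 0.7 or 1.5 nM, doubling to 3 µM, over RNA switches transcribed on Illumina chips by stalled E. coli RNA polymerase. Titrations had no input, 200 uM small-molecule ligand, or an oligonucleotide input, and steps lasted 0.8–1.5 h (lowest) to 10–20 min (highest).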

[1] = input ligand: microRNA oligo, concentration not stated
[2] = Eterna round: R95, input ligand: FMN 200 uM
[3] = Eterna round: R95, input ligand: microRNA oligo, concentration not stated
[4] = Eterna round: R95, input ligand: none

Sequence | apparent KD of MS2 coat protein (input ligand: FMN 200 uM) [nM] | apparent KD of MS2 coat protein [1] [nM] | apparent KD of MS2 coat protein (input ligand: none) [nM] | apparent KD of MS2 coat protein [2] [nM] | apparent KD of MS2 coat protein [3] [nM] | apparent KD of MS2 coat protein [4] [nM]
AAAAGAAACACAGGAUAUACCGCGCUUAACGCGGUAGAAGGGUGGGACAUGAGGAUCACCCAUGUGGCCUGAGCGCCAGGCCGC [Uszadi] (Eterna round: R96, puzzle: Same State NG 1) | 428 | 14.1 | 299 |  |  | 
AAAAUGCGGGAAGGAUAUGGGAAAGGAAGUGUACCAGAAGGUCUCGCGGCCAAGGACAUGAGGAUCACCCAUGUUAACGCCCGA [PowerStrip SSNG 1.8] (Eterna round: R96, puzzle: Same State NG 1) | 204 | 43.4 | 40.8 |  |  | 
AAAAUUUCUGCACAGGAUAUGUAGUGUUUCACAUGAGGAUCACCCAUGUCAAAACCAGAGACUGUACAGAAGGGUGCGGUCGGAC [Onedxequ] (puzzle: Same State 2) |  |  |  | 15.8 | 10.3 | 14.6
AAACGACACACAGGAUAUCCGCCAUGCAGGCUCGGAGAAGGGUGUGAAACAUGAGGAUCACCCAUGUAGUCAAAAUAAUAAAGA [Arardixequ] (Eterna round: R96, puzzle: Same State NG 1) | 47 | 62.9 | 58.9 |  |  | 
AACAAUCUAUCUGAGGAUAUCAUGAAAUAAACAUGAGGAUCACCCAUGUGCAGGAAAACUGCAUAUGAGAAGGCAGAUAGUUUGA [salish99_ss2_r3_056] (puzzle: Same State 2) |  |  |  | 47.5 | 716 | 855
AACAAUCUAUCUGAGGAUAUCAUGAAAUAAACAUGAGGAUCACCCAUGUGCAGGAAAACUGCAUAUGAGAAGGCAUAUAGAUUGA [salish99_ss2_r3_052] (puzzle: Same State 2) |  |  |  | 63.7 | 465 | 1560
AACAAUCUAUCUGAGGAUAUCAUGAAAUAAACAUGAGGAUCACCCAUGUGCAGGAAAACUGCAUUUGAGAAGGCAGAUAGAUUGA [salish99_ss2_r3_048] (puzzle: Same State 2) |  |  |  | 14.6 | 106 | 67.2
AACAAUCUAUCUGAGGAUAUCAUGAAAUAAACAUGAGGAUCACCCAUGUGCAGGAAAAUUGCAUAUGAGAAGGCAGAUAGAUUGA [salish99_ss2_r3_044] (puzzle: Same State 2) |  |  |  | 37.9 | 771 | 669
AACAAUCUAUCUGAGGAUAUCAUGUCAAAGACAUGAGGAUCACCCAUGUUGCAGGAAACUGCUCAUGAGAAGGCAGAUAGAUUGA [SS2: 1129] (Eterna round: R96, puzzle: Same State 2) | 41 | 329 | 385 |  |  | 
AACAUGAGGAUCACCCAUGUGGAAUACUGAAGCAGCUCAGGGAAGGAUAUGGUUGACACCCUCGACCAGAAGGUCCAAAUUAAA [Onarar] (Eterna round: R96, puzzle: Same State NG 3) | 63.3 | 98.2 | 121 |  |  | 
AACUUACUAUCUCAGGAUAUCAUGUCAAAGACAUGAGGAUCACCCAUGUACCAGGAAACUGGUUAUGAGAAGGGAGAUAGUAAGA [Mat - Same State 2 - Mod - D49] (puzzle: Same State 2) |  |  |  | 167 | 128 | 611
AAGAAACAUGAGGAUCACCCAUGUAAGAUAAACACAGGAUAUGCGAAUAAAAUAAAUAAAGCAGAAGGGUGAAGAA [Mat - Same State 1 - Tesla mod - D150] (Eterna round: R96, puzzle: Same State 1) |  | 38.9 |  |  |  | 
AAGUGGAACUGAGGAUAUGGCAUCCGAACAUGAGGAUCACCCAUGUAGUUAGGAAAAGAACGGAGCCAGAAGGUAGGACUCCGC [Soqube] (Eterna round: R96, puzzle: Same State NG 2) | 10.6 | 9.65 | 15 |  |  | 
AAUAUACAUGAGGAUCACCCAUGUUAGUAAAUGACAGGAUAUGCAAUAAAUAAAUAAUAAGCAGAAGGGUCUAAUA [JMF's solution 1] (puzzle: Same State 1) |  |  |  | 13.7 | 14.2 | 16
AAUCGUUUGAUAGGAUAUCGCUAUACAUGAGGAUCACCCAUGUUUACCACGCUGGUUUUUCGUACCGAGAAGGAUUCUGAUGAU [JL JR sub007 mod 4] (Eterna round: R96, puzzle: Same State NG 2) | 36 | 25.4 | 36.1 |  |  | 
AAUUAAGAUCAAGGAUAUCACGUCGAUUAGACGUGAGAAGGUGAUCCAUACAUGAGGAUCACCCAUGUAUAACAUGAAUUAAUU [SSNG1/8-B2] (Eterna round: R96, puzzle: Same State NG 1) | 395 | 626 | 1580 |  |  | 
AAUUAAGAUCGAGGAUAUCACGUCGAUUAGACGUGAGAAGGCGAUCAUAACAUGAGGAUCACCCAUGUAUUACAUGAAUUAAUU [SSNG1/4-B2] (Eterna round: R96, puzzle: Same State NG 1) | 33.4 | 26.7 | 36.6 |  |  | 
AAUUAAGAUCUAGGAUAUCACGUCGAAUAGACGUGAGAAGGAGAUCAUAACAUGAGGAUCACCCAUGUAUUACAUGAAUUAAUU [SSNG1/6-B1] (Eterna round: R96, puzzle: Same State NG 1) | 28 | 21.6 | 28.4 |  |  | 
AAUUAAUUAAUUAAUAUACAUGAGGAUCACCCAUGUAAGAUCAAGGAUAUCAGCUCGAAUAGAGCUGAGAAGGUGAUCACAUGU [SSNG3/16-A1] (Eterna round: R96, puzzle: Same State NG 3) |  | 251 |  |  |  | 
ACAAGCUUUUUAGGAGAGAAAGGAGGGAAACAUGAGGAUCACCCAUGUAUGGUAGUGAAUAGAGGAACUCGUCUUAU [JR_SHM208A_Sub080] (puzzle: Sensor for hsa-mir-208a) |  |  |  | 90.5 | 25.6 | 152
ACAGCGAAACAUGAGGAUCACCCAUGUAAAGAAUAGGUGAAUUGUUGCUCGUCUUGAAGAGAAGAGAAGAAGGAGAG [Victory 1] (puzzle: Sensor for hsa-mir-208a version 2) |  |  |  | 192 | 101 | 180
ACAUAGGUUUCAGGAUAUGGGUAAAUUCCCUACAUGAGGAUCACCCAUGUCCGUAGGGAUAACAUCCAGAAGGGAAGCCACAUA [MOD3 Eternabot Solution 1 (Score 87.5)] (Eterna round: R96, puzzle: Same State NG 2) | 175 | 144 | 221 |  |  | 
ACAUGACAUGACAUGAGGAUCACCCAUGUGAGGAUCACCCGGGAGGAUAUAGCCCAUGUGGAUCACUAGAAGGCCCUGAGGAUC [Same State NG3 S1] (Eterna round: R96, puzzle: Same State NG 3) | 36.4 | 39.5 | 49.5 |  |  | 
ACAUGAGACAUAGGAUAUCUUGUACCUACAUGUGACAUGAGGAUCACCCAUGUGGUAAGUAUGAGAGAGAAGGAUGAGAUAUGU [Equivalence 48 - Jieux - Same State NG 2] (Eterna round: R96, puzzle: Same State NG 2) | 17.5 | 17.9 | 20.6 |  |  | 
ACAUGAGACAUAGGAUAUGUUGUACCUACAUGUGACAUGAGGAUCACCCAUGUGGUAAGUAUGAGACAGAAGGAUGAGAUAUGU [Equivalence 30 - Jieux - Same State NG 2] (Eterna round: R96, puzzle: Same State NG 2) | 27.5 | 43.4 | 73 |  |  | 
ACAUGAGACCUAGGAUAUUUUGUACCUACAUGUGACAUGAGGAUCACCCAUGUGGUAAGUAUGAGAAAGAAGGAGGAGAUAUGU [Equivalence 21 - Jieux - Same State NG 2] (Eterna round: R96, puzzle: Same State NG 2) | 18.1 | 30.1 | 36.7 |  |  | 
ACAUGAGAGCGAGGAUAUAUUGUACCUACAUGUGACAUGAGGAUCACCCAUGUGGUAAGUAUGACAUAGAAGGCGCAGAUAUGU [Equivalance 91 - Jieux - Same State NG 2] (Eterna round: R96, puzzle: Same State NG 2) | 21.4 | 27.8 | 33.7 |  |  | 
